Data as given in the nanobody polyreactivity screen of Harvey et al. (2022).

assay: yeast display, Sf9 membrane polyspecificity reagent, FACS + sequencing; frameworks hold sequencing errors
Method in brief: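 Sorting gates, low and high (top ~1%), were placed on anti-HA fluorescence to track expression and on streptavidin fluorescence to track reagent binding. A clone's polyreactivity label is taken from the gate it came out of. The reagent was 10% biotinylated, detergent-solubilized Sf9 membrane, applied for 1 hour at 4 °C to galactose-induced yeast display cells.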

Row | Sequence | polyreactivity (PSR sort gate)
1 | QVQLVESGGGLVQAGGSLRLSCADSGFILWYNAMGWYRQAPGKERELVARIDVRGGSTYYADSVKGRFTISRDNAKNTVYLQMNSLKPEDTAVYYCARKRQGPASRARYDYWGQGTQVTVSS | low polyreactivity
2 | QVQLVESGGGLVQAGGSLRLSCADSGFNFKYYAMGWYRQAPGKERELVATITSRGGSTYYADSVKGRFTISRDNAKNTVYLQMNSLKPEATAVYYCNARSSSPGKYGYWGQGTQVTVSS | high polyreactivity
3 | QVQLVESGGGLVQAGGSLRLSCADSGFTFFSNAMGWYRQAPGKERELVAAITSSGRSTYADSVKGRYTISRDKAKNTVYLQMNSLKPEDSAVYYCAARRTGYLYRYGYWGQGTQVTVSS | low polyreactivity
4 | QVQLVESGGGLVQAGGSLRLSCADSGFTFILYAMGWYRQAPGKERELVAAITTSGGRTYYADSVKGRFTISRDNAKNTVYLQMNSLKPEDTAVYYCAAKEYYTPYRRGYWGQGTQVTVSS | high polyreactivity
5 | QVQLVESGGGLVQAGGSLRLSCADSGFTFPSYAMGGYRQAPGKERELVDVISRRGGSTYYADSVKGRFTISRDNAKNTVYLQMNSLKPEDTAVYYCARPRQPGSLYGYWGQGTQVTVSS | high polyreactivity
6 | QVQLVESGGGLVQAGGSLRLSCADSGFTFPSYTMGWYRQAPGKERDLDASIRVSGGRTYYADSVKGRFTISRDNAKNTVYLQMNSLKPEDTAVYYCAADYMTWWGGRYDYWGQGTQVTVSS | high polyreactivity
7 | QVQLVESGGGLVQAGGSLRLSCADSGFTFSLNTMGWYRQAPGKERELVAAINSGDSTYADSVKGRFTISRDNAKNTVYLQMNSLKPEDTAVYYCNADPDWWYPYIYWGQGTQVTVSS | low polyreactivity
8 | QVQLVESGGGLVQAGGSLRLSCADSGFTFSQYAAIGWYRQAPGKERELVAAINISGSTNYADSVKGRFTISRDNAKNTVYLQMNSLKPEDTAVYYCAAQQSWKIYDYWGLGTQVTVSS | low polyreactivity
9 | QVQLVESGGGLVQAGGSLRLSCADSGFTFTYYAMGWYRQAPGKERELVAGITRSGGSTYYADSVKGRFTISRDTAKNTVYLQMNSLKPEDTAVYYCAVKFVRYRQGIVLYDYWGQGTQVTVSS | high polyreactivity
10 | QVQLVESGGGLVQAGGSLRLSCADSGITFYEFGMGWYRQAPGKERELVAAITTDGRTNYADSVKGRFTISRDNATNTVYLQMNILKPEDTAVYYCAVVHYFWGFYSVDYWGQGTQETVSS | high polyreactivity
11 | QVQLVESGGGLVQAGGSLRLSCADSGLIIARNAMVWYRHAPGTERELVAAITRGGSTYYADSVKGSFTISRDNAKNTVYLLMNSLKPEDTAVYYCNARFRRYYYYGMDYWGQGTQVTVSS | high polyreactivity
12 | QVQLVESGGGLVQAGGSLRLSCADSGNIFNYYAMGWYRQAPGKERELVAAISTSGGRTYYADSVKGRFTISRDNAKNTVYLQMNSLKPEDTAVYYCAKVNRLYTYDYWGQGTQVTVSS | high polyreactivity
13 | QVQLVESGGGLVQAGGSLRLSCADSGNILGYNAMGSYRQAPGKATELVAAISDNADSTYYADSVKGRFTISRDNAKNTVYLQMKSLKPEDTAVYYGAADWVHRTWLFWYTKYDYWGQGTQVTVSS | low polyreactivity
14 | QVQLVESGGGLVQAGGSLRLSCADSGNTFSYYAMGWYRQAPGKEREFVAAIRKSGASTYYADSVKGRFTISRDNAKNTVYLEMNSLKPEDTAVYYCAADGQVSYALGFDYCGQGTQVTVSS | high polyreactivity
15 | QVQLVESGGGLVQAGGSLRLSCADSGNTLSYYVMGWYRQAPGKERELVADITSGGTTNYADSVKGRFTISRDNAKNTVYLQMNSLKAEDTAVYYCAAGPYKRPPWLRQGGYDYWGQGTQVTVSS | low polyreactivity
16 | QVQLVESGGGLVQAGGSLRLSCADSGPTIFYYAMGWYRTAPGKERELVAAIRRSGGRTRYADSVKGRFTISRDNAKNTVYLQMNSLKPEDTAVYYCAADDGTHRRGYDYWGQGTQVTVSS | low polyreactivity
17 | QVQLVESGGGLVQAGGSLRLSCADSGRIFDLNAMGWYRQAPGKERELVAAITWSGDSTYYADSVKGRFTISRDNAKNTVYLQMNSLKPEDTAVYYCAAASRTSYSWVDYEFDYWGQGTQVTVSS | low polyreactivity
18 | QVQLVESGGGLVQAGGSLRLSCADSGRIFGRYAMGWYRQAPGKERDLVAAIRSGGSTYYADSVKGRFTISRDNAKNSVYLQMNSLKPEDTAVYYCAADWGPFRLGYGYYYWGQGTQVTVSS | high polyreactivity
19 | QVQLVESGGGLVQAGGSLRLSCADSGRIFGSNAMGWYRQAPGKERELVAAISWRGASTYYADSVKGRFTISRDNAKNTVYLQMNSLKPEDTAVYYCATRGQTRTTTRYYSWGQGTQVTVSS | high polyreactivity
20 | QVQLVESGGGLVQAGGSLRLSCADSGRIIQYNAMGWYRQAPGKERDLDAAISYRGGSTYYADSVKGRYTISRDNAKNTVYLQMNSLKPEDTAVYYCAVEYPVYYYVEYDYWGQGTQVTVSS | high polyreactivity
21 | QVQLVESGGGLVQAGGSLRLSCADSGRNFYIYAMGWYRKAPGKERELVAAISISGSTYYADSVKGRFTISRDNAKNTVFLQMNSLKPEDTAVYYCAARDPGVAVGAAFDSWGQGTQVTVSS | low polyreactivity

Row | Sequence | polyreactivity (PSR sort gate)
22 | QVQLVESGGGLVQAGGSLRLSCADSGRNFYYYAMGWYRQAPGKERELVAAITSGGRTNYADSVKGRFTISRDNAKNNVYLQMNSLKPEDTAVYYGAATSKYKVRYSRYYYWGQGTQVTVSS | high polyreactivity
23 | QVQLVESGGGLVQAGGSLRLSCADSGRTFFYNGMGWYRQAPGKERELVAAISGSGSRTYYADSVKGRFTISRDNAKNTVYLQMNSLKPEDTAVYYCAATRVISHYRFDYWGQGTQVTVSS | high polyreactivity
24 | QVQLVESGGGLVQAGGSLRLSCADSGRTFGGYAMGWYRQAPGKQRELVASITWSGGSTYYADSVKGRFTISRDNAKNNVYLQMNSLKPEDTAVYYCGARTYQSRSTRMDYWGQGTQVTVSS | low polyreactivity
25 | QVQLVESGGGLVQAGGSLRLSCADSGRTFKYYAMGWYRQAPGKARELVAAIRSTGGSKYYADSVKGRFTISRDNAKNTVYLQMNSLKPEDTAVYYCNARRYPRYVFSRYDYWGQGTQVTVSS | high polyreactivity
26 | QVQLVESGGGLVQAGGSLRLSCADSGRTFNYYDMGWYRQAPGKERELVASITGSGGNTYYADSVKGRFTFSRDNAKNTVYLQMNSLKPEDTAVYYCAKAIGNFLYYYWLYHSSYEYDYWGQGTQVTVSS | low polyreactivity
27 | QVQLVESGGGLVQAGGSLRLSCADSGRTFRANAMGWYRQAPGKERELVAAITSTGDRTYYADSVKGRFTISRDNAKNTVYLQMNSLKPEDTAVYYGNAVYDLYHYWKFYYWGQGTQVTVSS | low polyreactivity
28 | QVQLVESGGGLVQAGGSLRLSCADSGRTFRIYAMGWYRQAPGKERELVARITKRAGSTYYADSVKGRFTISRDNAKNTVYLQMNSLKPEDTAVYYCAATHYQWRGRYGYWRQGTQVTVSS | high polyreactivity
29 | QVQLVESGGGLVQAGGSLRLSCADSGRTFRYYAMGWYRQAPGKERELVAAITSGGSTYYADSVKGRFTISRDNAKNTVYLQMNSLKPEDTAVYYCAAARYEPFIYDYGYWGQGTQVTVSS | low polyreactivity
30 | QVQLVESGGGLVQAGGSLRLSCADSGRTFWSNSMGWYRQAPGKERELVARIDSTYYADSVKGRFTISRDNAKNTVYLQMNSLKPEDTAFYYCNADTIYYAGDFRYDYWGQGTQVTVSS | low polyreactivity
31 | QVQLVESGGGLVQAGGSLRLSCADSGRTFYHDTMGWYRQAPGKERELVARITRRVGSTYYADSVKGRFTISRDNAKNTVYLQMNSLKPEDTAVYYCNAKSGLYRYLLDYWGQGTQVTVSS | high polyreactivity
32 | QVQLVESGGGLVQAGGSLRLSCADSGRTFYSYAMGWYRQAPGKERELVAAISASGGRTYYADSVKGRFTISRDNAKNTVYLQMNSLKPEDTAVYYCAAYVSGYRWGYDYWGQGTQVTVSS | high polyreactivity
33 | QVQLVESGGGLVQAGGSLRLSCADSGRTIYSNAMGWNIQAPGKERELVAAITGSSGSTYYADSVKGRFTISRDNAKNTVYLQMYSLKPEDTAVYYCAASCYGSLVRQLRLRGQGTQVTVSS | low polyreactivity
34 | QVQLVESGGGLVQAGGSLRLSCADSGSIFGINTMGWYRQAPGKERELVAAITFGGGSTYYADSVKGRFTISRDNAKNTVYLQMNSLKPEDTAVYYCNRLGVYWVGTEFDYWGQGTQVTVSS | low polyreactivity
35 | QVQLVESGGGLVQAGGSLRLSCADSGSIFGVYTRGWYSQAPGKERELVAAISGSGGSTYYADSVMGRFTISRDNAKNTVYFQMNSLIPEDTGVDYCATRFPNIPPYDSWGQGTQVTVSS | low polyreactivity
36 | QVQLVESGGGLVQAGGSLRLSCADSGSIFGYNAMGWYRQAPGKEREFVAAISWSGGRTYYADSVKGRFTISRDNAKNTVYLQMNSLKPEDTAVYYCAAPSRPAPRFDYWGQGTQVTVSS | low polyreactivity
37 | QVQLVESGGGLVQAGGSLRLSCADSGSIFLFNAMGWYRQAPGKERELVAAINRDDSTYYADSVKGRFTISRDNAKNTVYLQMNSLKPEDTAVYYCAAPVLHASYGYGYWGQGTQVTVSS | low polyreactivity
38 | QVQLVESGGGLVQAGGSLRLSCADSGSIFNGNTMGWYRQAPGKERELVAAITSGGRTYYADSVKGRFTISRDNAKNTVYLQMNSLKPEDTAVYYCATRNPYYRSYYSYDYWGQGTQVTVSS | high polyreactivity
39 | QVQLVESGGGLVQAGGSLRLSCADSGSIFQRYAVGWYRQAPGKEREVVAAFTASGGSTYYADSVKGRFTISRDNAKNTVYLQMNILKPEDTAVYYCATDSYWRQDLYRYEYWGQGTQVTVSS | high polyreactivity
40 | QVQLVESGGGLVQAGGSLRLSCADSGSIFRVNAMGWYRQAPGKDRELVAAISSGGSTHYADSVKGRFTISRDNAKNTVYLQMNSLKPEDTAVYYCAVRYALVPYLWYYWGQGTQVTVSS | high polyreactivity
41 | QVQLVESGGGLVQAGGSLRLSCADSGSIFRYNAMGWSRQAPGKERELVAAISGSGGSTYYADSVKGRFTISRDNAKNTVYLQRNSLKPEDTAVYYCNTRVYHYHYSYYPGGYWGQGTQVTVSS | high polyreactivity
